This note sets out measurements from patent publication US20210386829A1, “COMPOSITIONS AND METHODS FOR MODULATING CGRP SIGNALING TO REGULATE INNATE LYMPHOID CELL INFLAMMATORY RESPONSES” (The Broad Institute, Inc., priority 2018, published 2021).

Test [1] relates to lung ILCs. The test is described as follows: culture of sort-purified lung ILCs with IL-7, IL-33 or IL-25+NMU with or without CGRP (qPCR, LegendPlex, intracellular cytokine staining). The test is classed as cell-based, mouse. The following applies: short-term (8 hours) IL-33 alone, no CGRP. As to the method: (§1) ILC in vitro culture. For in vitro experiments 5,000 ILCs/well were cultured in a 96 well round bottom plate with 20 ng/ml IL-7 (R&D Systems), 200 ng/ml IL-25 (R&D Systems) or 20 ng/ml, 2 ng/ml or 0.2 ng/ml IL-33 (BioLegend) with or without 1 μg/ml Neuromedin U (US Biological). In some cases purified CD90.2^+ lung cells were first labeled with CellTrace Violet (Thermo Fisher Scientific), then sorted as described above, and cultured for 3 days under the indicated conditions.
Quantitative real-time PCR. RNA was isolated using RNeasy Plus Mini Kit (Qiagen) and reverse transcribed to cDNA with iScript cDNA Synthesis Kit (Bio-Rad). Gene expression was analyzed by quantitative real-time PCR on a ViiA7 System (Thermo Fisher Scientific) using TaqMan Fast Advanced Master Mix (Thermo Fisher Scientific) with the following primer/probe sets: Il5 (Mm00439646_m1), Il13 (Mm00434204_m1), Il17rb (Mm00444709_m1), Nmur1 (Mm04207994_m1), Nmur2 (Mm00600704_m1), Nmu (Mm00479868_m1) and Actb (Applied Biosystems). Expression values were calculated relative to Actb detected in the same sample by duplex qPCR.
Cytokine quantification. Cytokine concentrations in BAL fluid, lung and supernatant of in vitro ILC cultures were analyzed by the LegendPlex Mouse Th Cytokine Panel (13-plex) (BioLegend) according to the manufacturer's instructions and analyzed on a FACS Calibur (BD Biosciences).
Culture of innate lymphoid cells. Sort-purified innate lymphoid cells (ILCs) were cultured under sterile conditions in complete medium in a humidified incubator at 37° C. and 10% CO2. ILCs were plated at a density of 3,000-5,000 ILCs per well in a 96 well round-bottom plate in cell culture medium with 20 ng/ml IL-7. Depending on the experiment, different combinations of 200 ng/ml IL-25, 200 ng/ml IL-33, 1 ug/ml NMU and 100 nM CGRP were added either at start or after overnight culture with 20 ng/ml IL-7. […]
For flow cytometric analysis, lung cells were transferred into a 96 well V-bottom plate and stained with surface antibodies for 20 min at 4° C. in the dark. Cells were washed twice with DPBS containing 2% fetal bovine serum and transferred into 1.2 ml tubes for analysis by flow cytometry. For intracellular cytokine staining, cells were incubated in complete cell culture medium with 50 ng/ml phorbol 12-myristate 13-acetate (Sigma-Aldrich), 1 uM ionomycin (Sigma-Aldrich) and GolgiStop (Cat #554724; BD Biosciences) in a humidified incubator at 37° C. and 10% CO2. After 5 hours, cells were transferred into 96 well V-bottom plate, stained with Fixable Viability Dye eFluor 506 (Cat #65-0866-14; Thermo Fisher) and surface antibodies for 20 min at 4° C. in the dark and washed twice with DPBS containing 2% fetal bovine serum. Then, cells were incubated with BD Cytofix/Cytoperm Buffer (Cat #51-2090KZ; BD Biosciences) for 20 min, followed by a wash with BD Perm/Wash Buffer (Cat #51-2091KZ; BD Biosciences). Subsequently, cells were incubated with antibodies targeting intracellular proteins diluted in BD Perm/Wash Buffer for 20 min and after two wash steps, transferred into 1.2 ml tubes for analysis by flow cytometry. For ki67 staining, cells were stained for surface antibodies as described above, fixed with a solution of Fixation/Permeabilization Concentrate (Cat #00-5123-43; Invitrogen) and Fixation/Perm Diluent (Cat #00-5223-56; Invitrogen) for 20 min, washed with Permeabilization Buffer (Cat #00-8333-56; Invitrogen). Then, cells were incubated with ki67 antibody diluted in Permeabilization Buffer for 20 min, washed and transferred into FACS tubes. Cells were analyzed on a BD LSRFortessa (BD Biosciences) flow cytometer with 5 lasers (355 nm, 405 nm, 488 nm, 561 nm and 640 nm). Data was analyzed using FlowJo v10.5.0 software and cell populations were gated as described previously (Wallrapp 2017).
RNA isolation and cDNA synthesis. […]

Test [2] concerns lung ILCs. The test is described as follows: CellTrace Violet proliferation assay of sort-purified lung ILCs. The conditions noted are these: 3 days. The test is classed as cell-based, mouse. As to the method:
as §1
Proliferation assay. Lung cells were isolated and enriched for CD90.2 cells as described above, followed by labeling with CellTrace Violet (Cat #C34557; Thermo Fisher Scientific) according to manufacturer's instructions and subsequently stained with antibodies. After 3-day culture of sort-purified ILCs with 20 ng/ml IL-7 either alone or in combination with 200 ng/ml IL-33, 100 pM CGRP or 100 nM CGRP followed by staining, expression of CellTrace Violet in live (7AAD−) ILCs was analyzed on a BD LSRFortessa (BD Biosciences).

B1: IL-33: alarmin cytokine which activates ILC2s and induces their proliferation; used as stimulus (protein, UniProt Q8BVZ5 1-266, looked up)
Interleukin-33: MRPRMKYSNSKISPAKFSSTAGEALVPPCKIRRSQQKTKEFCHVYCMRLRSGLTIRKETSYFRKEPTKRYSLKSGTKHEENFSAYPRDSRKRSLLGSIQAFAASVDTLSIQGTSLLTQSPASLSTYNDQSVSFVLENGCYVINVDDSGKDQEQDQVLLRYYESPCPASQSGDGVDGKKLMVNMSPIKDTDIWLHANDKDYSVELQRGDVSPPEQAFFVLHKKSSDFVSFECKNLPGTYIGVKDNQLALVEEKDESCNNIMFKLSKI
B1: in the test with lung ILCs [1], the “frequency of IL-13-positive ILC2s (intracellular cytokine staining)” value is listed as roughly 13%. Also, the ILC2 proliferation entry with lung ILCs [2] (IL-7+IL-33 vs IL-7 alone, absent CGRP) is listed as “induced significant ILC2 proliferation”. For the same molecule, the “IL-33-activated ILCs that divided at least once” value in the test on lung ILCs [2] (IL-7+IL-33 without CGRP) was “approximately 55%”.
